The record followed here is PMC4434323.

Data set [1] addresses T1, nhr-3 (H01A20.1) (Caenorhabditis elegans) (UniProt Q9XTJ4).
T1 sequence: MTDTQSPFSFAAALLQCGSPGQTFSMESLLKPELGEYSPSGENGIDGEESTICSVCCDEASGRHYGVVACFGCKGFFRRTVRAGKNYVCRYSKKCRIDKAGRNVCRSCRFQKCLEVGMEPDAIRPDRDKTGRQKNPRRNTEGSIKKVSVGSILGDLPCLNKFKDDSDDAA

The target of data set [2] is T2, nhr-7 (F54D1.4) (Caenorhabditis elegans) (UniProt Q20765).
T2 sequence: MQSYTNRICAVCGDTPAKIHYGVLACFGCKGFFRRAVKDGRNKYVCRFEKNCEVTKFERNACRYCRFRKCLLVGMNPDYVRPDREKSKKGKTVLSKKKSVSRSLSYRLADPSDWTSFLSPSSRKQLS

Data set [3] deals with T3, nhr-1 (R09G11.2) (Caenorhabditis elegans) (UniProt Q21878).
T3 sequence: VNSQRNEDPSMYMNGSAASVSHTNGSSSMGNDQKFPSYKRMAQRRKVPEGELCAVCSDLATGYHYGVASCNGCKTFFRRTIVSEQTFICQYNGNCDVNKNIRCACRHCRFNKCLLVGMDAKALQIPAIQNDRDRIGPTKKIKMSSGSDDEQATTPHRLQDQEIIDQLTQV

Data set [4] deals with nhr-34 (F58G6.5) (Caenorhabditis elegans) (UniProt Q21006).
For data set [5], the target named is T4, nhr-46 (C45E5.6) (Caenorhabditis elegans) (UniProt Q95QR2).
T4 sequence: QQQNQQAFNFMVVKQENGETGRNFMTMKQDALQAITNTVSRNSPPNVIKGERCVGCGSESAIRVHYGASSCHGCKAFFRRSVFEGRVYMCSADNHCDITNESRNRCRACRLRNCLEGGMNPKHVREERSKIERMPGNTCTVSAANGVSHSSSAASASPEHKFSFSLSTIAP

For data set [6], the target named is T5, C46E10.8 (C46E10.8) (Caenorhabditis elegans) (UniProt O44719).
T5 sequence: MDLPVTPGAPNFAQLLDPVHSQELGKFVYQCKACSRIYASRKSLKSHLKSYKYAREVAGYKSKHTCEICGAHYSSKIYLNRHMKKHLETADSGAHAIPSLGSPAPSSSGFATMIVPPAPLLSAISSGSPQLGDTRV

Data set [7] has as its target T6, dmd-6 (F13G11.1) (Caenorhabditis elegans) (UniProt O62159).
T6 sequence: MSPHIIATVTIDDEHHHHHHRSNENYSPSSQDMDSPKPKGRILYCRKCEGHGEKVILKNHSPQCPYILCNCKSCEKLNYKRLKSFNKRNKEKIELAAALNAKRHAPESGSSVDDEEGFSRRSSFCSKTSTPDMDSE

The target of data set [8] is T7, nhr-154 (C13C4.2) (Caenorhabditis elegans) (UniProt O01931).
T7 sequence: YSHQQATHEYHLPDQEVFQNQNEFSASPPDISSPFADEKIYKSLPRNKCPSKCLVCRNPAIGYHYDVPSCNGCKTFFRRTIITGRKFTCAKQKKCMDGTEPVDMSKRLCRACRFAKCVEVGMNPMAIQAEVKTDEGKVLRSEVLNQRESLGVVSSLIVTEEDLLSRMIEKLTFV

Data set [9] has as its target T8, pop-1 (W10C8.2) (Caenorhabditis elegans) (UniProt Q10666).
T8 sequence: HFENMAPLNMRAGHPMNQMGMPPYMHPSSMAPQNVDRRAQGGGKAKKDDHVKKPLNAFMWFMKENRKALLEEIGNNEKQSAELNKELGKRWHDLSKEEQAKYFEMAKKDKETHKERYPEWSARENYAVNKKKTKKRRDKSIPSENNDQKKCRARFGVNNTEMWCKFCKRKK

Data set [10] has as its target T9, efl-2 (Y48C3A.17) (Caenorhabditis elegans) (UniProt A5HWA8).
T9 sequence: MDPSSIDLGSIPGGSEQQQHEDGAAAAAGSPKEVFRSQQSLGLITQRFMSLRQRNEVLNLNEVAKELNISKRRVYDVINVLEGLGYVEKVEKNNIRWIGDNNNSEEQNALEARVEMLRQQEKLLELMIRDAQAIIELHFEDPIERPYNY

For data set [11], the target named is T10, fkh-9 (K03C7.2) (Caenorhabditis elegans) (UniProt Q21187).
T10 sequence: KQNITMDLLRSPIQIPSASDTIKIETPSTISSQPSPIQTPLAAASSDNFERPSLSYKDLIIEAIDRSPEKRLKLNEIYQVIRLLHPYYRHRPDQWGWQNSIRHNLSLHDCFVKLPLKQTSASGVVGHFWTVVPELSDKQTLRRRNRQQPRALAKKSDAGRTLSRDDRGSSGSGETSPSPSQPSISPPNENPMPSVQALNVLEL

Data set [12] has as its target T11, let-381 (F26B1.7) (Caenorhabditis elegans) (UniProt P91278).
T11 sequence: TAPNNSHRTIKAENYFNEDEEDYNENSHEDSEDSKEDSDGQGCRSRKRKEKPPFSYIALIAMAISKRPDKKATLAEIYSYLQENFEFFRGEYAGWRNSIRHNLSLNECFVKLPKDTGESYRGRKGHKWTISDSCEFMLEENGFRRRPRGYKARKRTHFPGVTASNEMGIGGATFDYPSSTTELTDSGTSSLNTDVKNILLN

Data set [13] addresses T12, lin-31 (K10G6.1) (Caenorhabditis elegans) (UniProt P34683).
T12 sequence: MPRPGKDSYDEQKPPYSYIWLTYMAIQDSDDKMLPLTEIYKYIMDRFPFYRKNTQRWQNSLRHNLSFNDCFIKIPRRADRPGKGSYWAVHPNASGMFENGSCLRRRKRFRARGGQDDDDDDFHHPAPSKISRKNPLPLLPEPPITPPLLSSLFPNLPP

The target of data set [14] is T13, ztf-27 (T09F3.1) (Caenorhabditis elegans) (UniProt G5EDA0).
T13 sequence: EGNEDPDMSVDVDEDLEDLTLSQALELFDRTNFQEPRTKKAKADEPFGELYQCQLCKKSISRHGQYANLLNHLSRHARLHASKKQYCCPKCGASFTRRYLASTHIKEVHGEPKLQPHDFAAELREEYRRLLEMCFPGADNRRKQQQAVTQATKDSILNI

Data set [15] addresses T14, D1005.3 (D1005.3) (Caenorhabditis elegans) (UniProt Q18909).
T14 sequence: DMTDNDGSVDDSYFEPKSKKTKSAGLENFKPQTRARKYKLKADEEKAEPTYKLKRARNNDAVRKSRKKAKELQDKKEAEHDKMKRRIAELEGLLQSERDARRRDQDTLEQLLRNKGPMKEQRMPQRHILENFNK

Data set [16] has as its target T15, T27F2.4 (T27F2.4) (Caenorhabditis elegans) (UniProt Q22835).
T15 sequence: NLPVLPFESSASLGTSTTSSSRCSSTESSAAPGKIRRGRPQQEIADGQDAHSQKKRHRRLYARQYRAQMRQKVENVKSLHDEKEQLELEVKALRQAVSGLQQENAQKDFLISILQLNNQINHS

The target in data set [17] is T16, F10B5.3 (F10B5.3) (Caenorhabditis elegans) (UniProt Q09534).
T16 sequence: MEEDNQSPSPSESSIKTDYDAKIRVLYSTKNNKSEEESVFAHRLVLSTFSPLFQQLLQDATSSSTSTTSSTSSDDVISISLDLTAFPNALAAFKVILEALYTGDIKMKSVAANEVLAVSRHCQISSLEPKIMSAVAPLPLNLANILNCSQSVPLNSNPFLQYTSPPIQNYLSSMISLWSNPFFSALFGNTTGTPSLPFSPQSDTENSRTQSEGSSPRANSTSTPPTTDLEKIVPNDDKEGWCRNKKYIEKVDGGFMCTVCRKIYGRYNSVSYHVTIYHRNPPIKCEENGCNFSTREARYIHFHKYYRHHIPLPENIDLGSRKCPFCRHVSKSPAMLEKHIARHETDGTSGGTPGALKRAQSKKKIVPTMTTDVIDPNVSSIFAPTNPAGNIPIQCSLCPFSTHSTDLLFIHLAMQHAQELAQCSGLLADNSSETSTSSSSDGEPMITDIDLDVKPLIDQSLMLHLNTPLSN

In data set [18] the target is T17, hsf-1 (Y53C10A.12) (Caenorhabditis elegans) (UniProt G5EFT5).
T17 sequence: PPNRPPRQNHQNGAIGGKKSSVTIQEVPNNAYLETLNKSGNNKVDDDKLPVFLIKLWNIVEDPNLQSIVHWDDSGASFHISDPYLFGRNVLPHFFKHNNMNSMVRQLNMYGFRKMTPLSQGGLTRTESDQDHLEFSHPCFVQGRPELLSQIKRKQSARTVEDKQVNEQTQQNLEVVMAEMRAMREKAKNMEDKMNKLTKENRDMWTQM

nhr-34 (F58G6.5) (Caenorhabditis elegans), sequence (Q21006 99-268): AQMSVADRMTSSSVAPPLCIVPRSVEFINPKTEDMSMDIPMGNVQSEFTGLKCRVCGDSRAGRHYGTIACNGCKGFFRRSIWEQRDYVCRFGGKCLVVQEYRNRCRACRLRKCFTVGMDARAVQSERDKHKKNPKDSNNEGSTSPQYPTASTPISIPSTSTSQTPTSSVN

As to “AAAGACCA (double strand) [8-mer AAAGACCA]”, the figures for the binding signal (PBM E-score (-0.5 to 0.5)) in data set [1] and in data set [2] were 0.459 and 0.472, respectively.
For “AAAGATCA (double strand) [8-mer AAAGATCA]”, the binding signal (PBM E-score (-0.5 to 0.5)) in data set [3] came to 0.472; in data set [1], 0.488; in data set [4], 0.485; in data set [5], 0.49; in data set [2], 0.476.
“AAGACCAA (double strand) [8-mer AAGACCAA]”: the values for the binding signal (PBM E-score (-0.5 to 0.5)) in data set [1], in [4] and in data set [2] were 0.457, 0.473 and 0.469, respectively.
In the case of “AAGATCAA (double strand) [8-mer AAGATCAA]”, the binding signal (PBM E-score (-0.5 to 0.5)) in data set [1] is 0.486; in [4], 0.494; in data set [5], 0.496; in [2], 0.455.
“AATTTATA (double strand) [8-mer AATTTATA]”: the binding signal (PBM E-score (-0.5 to 0.5)) in [6] turned out to be 0.457; in [7], 0.471.
As to “AATTTATG (double strand) [8-mer AATTTATG]”, the binding signal (PBM E-score (-0.5 to 0.5)) in [6] amounted to 0.465.
As to “AGGCGCCA (double strand) [8-mer AGGCGCCA]”, the binding signal (PBM E-score (-0.5 to 0.5)) in [8] came out at 0.452.
On to “ATAAATTA (double strand) [8-mer ATAAATTA]”, for which the binding signal (PBM E-score (-0.5 to 0.5)) in data set [6] was 0.451.
As to “ATCAAAGA (double strand) [8-mer ATCAAAGA]”, the binding signal (PBM E-score (-0.5 to 0.5)) in [9] worked out at 0.456.
“CATCAAAG (double strand) [8-mer CATCAAAG]”: in data set [9], the binding signal (PBM E-score (-0.5 to 0.5)) is 0.463.
The sequence “CTTTGATC (double strand) [8-mer CTTTGATC]” registered a binding signal (PBM E-score (-0.5 to 0.5)) in data set [9] of 0.451.
Turning to “GCGCCAAA (double strand) [8-mer GCGCCAAA]”, in [8], the binding signal (PBM E-score (-0.5 to 0.5)) came out at 0.453.
Consider “GGCGCCAA (double strand) [8-mer GGCGCCAA]”, for which the values for the binding signal (PBM E-score (-0.5 to 0.5)) in data set [10] and in [8] were 0.488 and 0.46, respectively.
With “GTAAACAA (double strand) [8-mer GTAAACAA]”, the binding signal (PBM E-score (-0.5 to 0.5)) in data set [11] amounted to 0.492; in data set [12], 0.486; in data set [13], 0.47.
“TAAATTTA (double strand) [8-mer TAAATTTA]” registered a binding signal (PBM E-score (-0.5 to 0.5)) in data set [6] of 0.459.
Consider “TGGCGCCA (double strand) [8-mer TGGCGCCA]”, for which the figures for the binding signal (PBM E-score (-0.5 to 0.5)) in [10], in data set [8] and in [14] were 0.492, 0.474 and 0.491, respectively.
Consider “TGTAAACA (double strand) [8-mer TGTAAACA]”, for which the binding signal (PBM E-score (-0.5 to 0.5)) in data set [11] worked out at 0.485; in data set [12], 0.461; in data set [13], 0.476.
In the case of “TTACGAAA (double strand) [8-mer TTACGAAA]”, the figures for the binding signal (PBM E-score (-0.5 to 0.5)) in [15] and in data set [16] were 0.464 and 0.463, respectively.
Turning to “TTCCAGAA (double strand) [8-mer TTCCAGAA]”, the binding signal (PBM E-score (-0.5 to 0.5)) turned out to be 0.491 in data set [17] and 0.489 in data set [18].
Taken in the same sequence, the figures for “TTCTAGAA (double strand) [8-mer TTCTAGAA]” were 0.477 and 0.498.
“TTGCGAAA (double strand) [8-mer TTGCGAAA]”: the binding signal (PBM E-score (-0.5 to 0.5)) in [15] was found to be 0.466.
